Laboratory results as given in US20100331246A1 (INDIANA UNIVERSITY RESEARCH AND TECHNOLOGY, published 2010).
Like-named read-outs stand apart in the source and are kept apart here. Each block holds one substance with its values, some of them ahead of it.

Assays:
Test in all cases: cell-based or functional assay
GLP-1 receptor [1] = biological target: GLP-1 receptor (UniProt P43220)
GLP-1 receptor [2] = biological target: GLP-1 receptor (UniProt P43220 24-463, limits assumed)
glucagon receptor = glucagon receptor (UniProt P47871 26-477)

Sequence of GLP-1 receptor (UniProt P43220) (P43220 24-463 limits assumed): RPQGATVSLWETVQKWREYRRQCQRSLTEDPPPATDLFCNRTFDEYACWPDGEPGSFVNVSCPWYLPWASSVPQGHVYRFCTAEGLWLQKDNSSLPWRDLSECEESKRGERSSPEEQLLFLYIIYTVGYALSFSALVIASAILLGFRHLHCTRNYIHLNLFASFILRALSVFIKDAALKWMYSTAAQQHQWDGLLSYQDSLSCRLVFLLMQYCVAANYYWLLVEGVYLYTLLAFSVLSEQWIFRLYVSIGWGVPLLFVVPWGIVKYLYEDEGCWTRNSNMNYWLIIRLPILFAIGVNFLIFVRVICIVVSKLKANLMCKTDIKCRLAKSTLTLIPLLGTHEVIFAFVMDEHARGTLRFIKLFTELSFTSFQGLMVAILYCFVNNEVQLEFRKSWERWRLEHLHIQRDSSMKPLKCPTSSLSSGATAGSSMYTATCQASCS

Substance: (H7F),(E9Q),GLP(8-36)-CEX (peptide)
% potency with respect to GLP-1 (GLP-1 receptor [1]): 33.3%

Substance: F^5V^6-O-F^7,GLP(8-36)-CEX (peptide)
% potency with respect to parent (GLP-1 receptor [1]): 1.3%

Substance: G^5V^6-O-F^7,GLP(8-36)CEX (peptide)
% potency with respect to parent (GLP-1 receptor [1]): 12%
% potency with respect to parent, before incubation (GLP-1 receptor [1]): 10.9%
% potency with respect to parent, prodrug incubated in PBS for 24 hrs (GLP-1 receptor [1]): 46%
% potency with respect to parent, prodrug incubated in PBS for 168 hrs (GLP-1 receptor [1]): 95.8%

Substance: HO-F^5F^6-O-F^7,GLP(8-36)-CEX (peptide)
% potency with respect to parent (GLP-1 receptor [1]): 3.6%
% potency with respect to parent, before incubation (GLP-1 receptor [1]): 3.7%
% potency with respect to parent, prodrug incubated in PBS for 24 hrs (GLP-1 receptor [1]): 17.2%

Substance: [A2E3, E16K20(Lactam), D28]G(1~29) (peptide)
GLP-1 EC50 (GLP-1 receptor [2]): 0.2 nM
Glucagon IC50 (glucagon receptor): 130 nM

Substance: [PLA6, D9, E16, E24K28(lactam), D28]G(6~29) (peptide)
GLP-1 EC50 (GLP-1 receptor [2]): 289 nM
Glucagon IC50 (glucagon receptor): 22 nM

Substance: [PLA6, D9, K12E16(Lactam), D28]G(6-29) (peptide)
GLP-1 EC50 (GLP-1 receptor [2]): 177 nM
GLP-1 EC50 (GLP-1 receptor [2]; record 2): 21 nM
Glucagon IC50 (glucagon receptor): 63 nM
Glucagon IC50 (glucagon receptor; record 2): 13 nM

More lines, now with the values ahead:

% potency with respect to parent (GLP-1 receptor [2]): 7%
Substance: HO-F5dV6-O-F7,GLP(8-36)-CEX (peptide)

Glucagon IC50 (glucagon receptor): 63 nM
Substance: [A2E3, E16K20(Lactam), D28]G(2~29) (peptide)

GLP-1 EC50 (GLP-1 receptor [2]): 151 nM
Glucagon IC50 (glucagon receptor): 10 to 30 nM
Substance: [E9, E16K20(lactam), D28]G(4~29) (peptide)

GLP-1 EC50 (GLP-1 receptor [2]): 239 nM
Glucagon IC50 (glucagon receptor): 74 nM
Substance: [PLA6, D9, E16, K20E24(Lactam), D28]G(6-29) (peptide)

GLP-1 EC50 (GLP-1 receptor [2]): 5 to 25 nM
GLP-1 EC50 (GLP-1 receptor [2]; record 2): 4 nM
Glucagon IC50 (glucagon receptor): 10 to 30 nM
Glucagon IC50 (glucagon receptor; record 2): 6 nM
Substance: [PLA6, D9, E16K20(lactam), D28]G(6-29) (peptide)
